Biological target: T1, FcγRIa (human, UniProt P12314 16-292)
T1 construct: extracellular domain; also called FcgRI; 1a
Assay: SPR (Biacore); Ho Ab relative to HoCon Ab = 100
Experimental: Analysis of interaction between objective antibody and the FcγR was carried out using Biacore T100 (GE Healthcare). HBS-EP+ (GE Healthcare) was used as the running buffer, and the measurement temperature was set to 25° C. Chips produced by immobilizing the antigen peptide by the amine coupling method to a Series S Sencor Chip CM5 (GE Healthcare), or alternatively, chips produced by allowing preliminarily biotinylated antigen peptides to interact with and immobilize onto a Series S Sensor Chip SA (certified) (GE Healthcare) were used. Antibodies of interest were captured onto an antigen peptide-immobilized chip, and allowed to interact to each FcγR diluted with running buffer. To regenerate and repeatedly use the chip, the antibodies captured on the chip were washed off by reacting 10 mM glycine-HCl, pH 1.5.

T1 sequence (P12314 16-292): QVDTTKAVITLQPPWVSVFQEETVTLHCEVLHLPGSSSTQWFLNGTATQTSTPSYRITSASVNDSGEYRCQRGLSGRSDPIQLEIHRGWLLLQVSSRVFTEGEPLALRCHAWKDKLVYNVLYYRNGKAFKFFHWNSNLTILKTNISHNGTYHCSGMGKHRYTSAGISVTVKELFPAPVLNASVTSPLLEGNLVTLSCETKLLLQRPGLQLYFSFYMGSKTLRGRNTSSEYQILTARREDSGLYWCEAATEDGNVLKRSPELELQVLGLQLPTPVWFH

Row | Binder | Ho/Con_1a
1 | GpH7-B3 variant E333_01G/GpL16-k0 (antibody, human IgG1, kappa, also called Ho Ab E333_01G) heavy: not shown light: DIVMTQSPLSLPVTPGEPASISCQASESLVHSNRNTYLHWYLQKPGQSPQLLIYKVSNRFSGVPDRFSGSGSGTDFTLKISRVEAEDVGVYYCSQNTHVPPTFGQGTKVEIERTVAAPSVFIFPPSDEQLKSGTASVVCLLNNFYPREAKVQWKVDNALQSGNSQESVTEQDSKDSTYSLSSTLTLSKADYEKHKVYACEVTHQGLSSPVTKSFNRGEC | 100 % of control
2 | GpH7-B3 variant E333_16H/GpL16-k0 (antibody, human IgG1, kappa, also called Ho Ab E333_16H) heavy: not shown light: DIVMTQSPLSLPVTPGEPASISCQASESLVHSNRNTYLHWYLQKPGQSPQLLIYKVSNRFSGVPDRFSGSGSGTDFTLKISRVEAEDVGVYYCSQNTHVPPTFGQGTKVEIERTVAAPSVFIFPPSDEQLKSGTASVVCLLNNFYPREAKVQWKVDNALQSGNSQESVTEQDSKDSTYSLSSTLTLSKADYEKHKVYACEVTHQGLSSPVTKSFNRGEC | 99.1 % of control
3 | GpH7-B3 variant G236_20W/GpL16-k0 (antibody, human IgG1, kappa, also called Ho Ab G236_20W) heavy: not shown light: DIVMTQSPLSLPVTPGEPASISCQASESLVHSNRNTYLHWYLQKPGQSPQLLIYKVSNRFSGVPDRFSGSGSGTDFTLKISRVEAEDVGVYYCSQNTHVPPTFGQGTKVEIERTVAAPSVFIFPPSDEQLKSGTASVVCLLNNFYPREAKVQWKVDNALQSGNSQESVTEQDSKDSTYSLSSTLTLSKADYEKHKVYACEVTHQGLSSPVTKSFNRGEC | 104 % of control
4 | GpH7-B3 variant H268_08L/GpL16-k0 (antibody, human IgG1, kappa, also called Ho Ab H268_08L) heavy: not shown light: DIVMTQSPLSLPVTPGEPASISCQASESLVHSNRNTYLHWYLQKPGQSPQLLIYKVSNRFSGVPDRFSGSGSGTDFTLKISRVEAEDVGVYYCSQNTHVPPTFGQGTKVEIERTVAAPSVFIFPPSDEQLKSGTASVVCLLNNFYPREAKVQWKVDNALQSGNSQESVTEQDSKDSTYSLSSTLTLSKADYEKHKVYACEVTHQGLSSPVTKSFNRGEC | 105 % of control
5 | GpH7-B3 variant E333_11K/GpL16-k0 (antibody, human IgG1, kappa, also called Ho Ab E333_11K) heavy: not shown light: DIVMTQSPLSLPVTPGEPASISCQASESLVHSNRNTYLHWYLQKPGQSPQLLIYKVSNRFSGVPDRFSGSGSGTDFTLKISRVEAEDVGVYYCSQNTHVPPTFGQGTKVEIERTVAAPSVFIFPPSDEQLKSGTASVVCLLNNFYPREAKVQWKVDNALQSGNSQESVTEQDSKDSTYSLSSTLTLSKADYEKHKVYACEVTHQGLSSPVTKSFNRGEC | 95.8 % of control
6 | GpH7-B3 variant E333_15Y/GpL16-k0 (antibody, human IgG1, kappa, also called Ho Ab E333_15Y) heavy: not shown light: DIVMTQSPLSLPVTPGEPASISCQASESLVHSNRNTYLHWYLQKPGQSPQLLIYKVSNRFSGVPDRFSGSGSGTDFTLKISRVEAEDVGVYYCSQNTHVPPTFGQGTKVEIERTVAAPSVFIFPPSDEQLKSGTASVVCLLNNFYPREAKVQWKVDNALQSGNSQESVTEQDSKDSTYSLSSTLTLSKADYEKHKVYACEVTHQGLSSPVTKSFNRGEC | 100 % of control
7 | GpH7-B3 variant H268_07I/GpL16-k0 (antibody, human IgG1, kappa, also called Ho Ab H268_07I) heavy: not shown light: DIVMTQSPLSLPVTPGEPASISCQASESLVHSNRNTYLHWYLQKPGQSPQLLIYKVSNRFSGVPDRFSGSGSGTDFTLKISRVEAEDVGVYYCSQNTHVPPTFGQGTKVEIERTVAAPSVFIFPPSDEQLKSGTASVVCLLNNFYPREAKVQWKVDNALQSGNSQESVTEQDSKDSTYSLSSTLTLSKADYEKHKVYACEVTHQGLSSPVTKSFNRGEC | 106 % of control
8 | GpH7-B3 variant E333_05P/GpL16-k0 (antibody, human IgG1, kappa, also called Ho Ab E333_05P) heavy: not shown light: DIVMTQSPLSLPVTPGEPASISCQASESLVHSNRNTYLHWYLQKPGQSPQLLIYKVSNRFSGVPDRFSGSGSGTDFTLKISRVEAEDVGVYYCSQNTHVPPTFGQGTKVEIERTVAAPSVFIFPPSDEQLKSGTASVVCLLNNFYPREAKVQWKVDNALQSGNSQESVTEQDSKDSTYSLSSTLTLSKADYEKHKVYACEVTHQGLSSPVTKSFNRGEC | 99.2 % of control
9 | GpH7-B3 variant H268_02A/GpL16-k0 (antibody, human IgG1, kappa, also called Ho Ab H268_02A) heavy: not shown light: DIVMTQSPLSLPVTPGEPASISCQASESLVHSNRNTYLHWYLQKPGQSPQLLIYKVSNRFSGVPDRFSGSGSGTDFTLKISRVEAEDVGVYYCSQNTHVPPTFGQGTKVEIERTVAAPSVFIFPPSDEQLKSGTASVVCLLNNFYPREAKVQWKVDNALQSGNSQESVTEQDSKDSTYSLSSTLTLSKADYEKHKVYACEVTHQGLSSPVTKSFNRGEC | 106 % of control
10 | GpH7-B3 variant E333_02A/GpL16-k0 (antibody, human IgG1, kappa, also called Ho Ab E333_02A) heavy: not shown light: DIVMTQSPLSLPVTPGEPASISCQASESLVHSNRNTYLHWYLQKPGQSPQLLIYKVSNRFSGVPDRFSGSGSGTDFTLKISRVEAEDVGVYYCSQNTHVPPTFGQGTKVEIERTVAAPSVFIFPPSDEQLKSGTASVVCLLNNFYPREAKVQWKVDNALQSGNSQESVTEQDSKDSTYSLSSTLTLSKADYEKHKVYACEVTHQGLSSPVTKSFNRGEC | 96.2 % of control
11 | GpH7-B3 variant E333_04F/GpL16-k0 (antibody, human IgG1, kappa, also called Ho Ab E333_04F) heavy: not shown light: DIVMTQSPLSLPVTPGEPASISCQASESLVHSNRNTYLHWYLQKPGQSPQLLIYKVSNRFSGVPDRFSGSGSGTDFTLKISRVEAEDVGVYYCSQNTHVPPTFGQGTKVEIERTVAAPSVFIFPPSDEQLKSGTASVVCLLNNFYPREAKVQWKVDNALQSGNSQESVTEQDSKDSTYSLSSTLTLSKADYEKHKVYACEVTHQGLSSPVTKSFNRGEC | 98.4 % of control
12 | GpH7-B3 variant E333_03V/GpL16-k0 (antibody, human IgG1, kappa, also called Ho Ab E333_03V) heavy: not shown light: DIVMTQSPLSLPVTPGEPASISCQASESLVHSNRNTYLHWYLQKPGQSPQLLIYKVSNRFSGVPDRFSGSGSGTDFTLKISRVEAEDVGVYYCSQNTHVPPTFGQGTKVEIERTVAAPSVFIFPPSDEQLKSGTASVVCLLNNFYPREAKVQWKVDNALQSGNSQESVTEQDSKDSTYSLSSTLTLSKADYEKHKVYACEVTHQGLSSPVTKSFNRGEC | 98.4 % of control
13 | GpH7-B3 variant E333_08L/GpL16-k0 (antibody, human IgG1, kappa, also called Ho Ab E333_08L) heavy: not shown light: DIVMTQSPLSLPVTPGEPASISCQASESLVHSNRNTYLHWYLQKPGQSPQLLIYKVSNRFSGVPDRFSGSGSGTDFTLKISRVEAEDVGVYYCSQNTHVPPTFGQGTKVEIERTVAAPSVFIFPPSDEQLKSGTASVVCLLNNFYPREAKVQWKVDNALQSGNSQESVTEQDSKDSTYSLSSTLTLSKADYEKHKVYACEVTHQGLSSPVTKSFNRGEC | 99 % of control
14 | GpH7-B3 variant E333_07I/GpL16-k0 (antibody, human IgG1, kappa, also called Ho Ab E333_07I) heavy: not shown light: DIVMTQSPLSLPVTPGEPASISCQASESLVHSNRNTYLHWYLQKPGQSPQLLIYKVSNRFSGVPDRFSGSGSGTDFTLKISRVEAEDVGVYYCSQNTHVPPTFGQGTKVEIERTVAAPSVFIFPPSDEQLKSGTASVVCLLNNFYPREAKVQWKVDNALQSGNSQESVTEQDSKDSTYSLSSTLTLSKADYEKHKVYACEVTHQGLSSPVTKSFNRGEC | 99.9 % of control
15 | GpH7-B3 variant E333_12R/GpL16-k0 (antibody, human IgG1, kappa, also called Ho Ab E333_12R) heavy: not shown light: DIVMTQSPLSLPVTPGEPASISCQASESLVHSNRNTYLHWYLQKPGQSPQLLIYKVSNRFSGVPDRFSGSGSGTDFTLKISRVEAEDVGVYYCSQNTHVPPTFGQGTKVEIERTVAAPSVFIFPPSDEQLKSGTASVVCLLNNFYPREAKVQWKVDNALQSGNSQESVTEQDSKDSTYSLSSTLTLSKADYEKHKVYACEVTHQGLSSPVTKSFNRGEC | 94.2 % of control
16 | GpH7-B3 variant E333_09D/GpL16-k0 (antibody, human IgG1, kappa, also called Ho Ab E333_09D) heavy: not shown light: DIVMTQSPLSLPVTPGEPASISCQASESLVHSNRNTYLHWYLQKPGQSPQLLIYKVSNRFSGVPDRFSGSGSGTDFTLKISRVEAEDVGVYYCSQNTHVPPTFGQGTKVEIERTVAAPSVFIFPPSDEQLKSGTASVVCLLNNFYPREAKVQWKVDNALQSGNSQESVTEQDSKDSTYSLSSTLTLSKADYEKHKVYACEVTHQGLSSPVTKSFNRGEC | 103 % of control
17 | GpH7-B3 variant G236_02A/GpL16-k0 (antibody, human IgG1, kappa, also called Ho Ab G236_02A) heavy: not shown light: DIVMTQSPLSLPVTPGEPASISCQASESLVHSNRNTYLHWYLQKPGQSPQLLIYKVSNRFSGVPDRFSGSGSGTDFTLKISRVEAEDVGVYYCSQNTHVPPTFGQGTKVEIERTVAAPSVFIFPPSDEQLKSGTASVVCLLNNFYPREAKVQWKVDNALQSGNSQESVTEQDSKDSTYSLSSTLTLSKADYEKHKVYACEVTHQGLSSPVTKSFNRGEC | 92.4 % of control
18 | GpH7-B3 variant H268_05P/GpL16-k0 (antibody, human IgG1, kappa, also called Ho Ab H268_05P) heavy: not shown light: DIVMTQSPLSLPVTPGEPASISCQASESLVHSNRNTYLHWYLQKPGQSPQLLIYKVSNRFSGVPDRFSGSGSGTDFTLKISRVEAEDVGVYYCSQNTHVPPTFGQGTKVEIERTVAAPSVFIFPPSDEQLKSGTASVVCLLNNFYPREAKVQWKVDNALQSGNSQESVTEQDSKDSTYSLSSTLTLSKADYEKHKVYACEVTHQGLSSPVTKSFNRGEC | 108 % of control
19 | GpH7-B3 variant E333_14T/GpL16-k0 (antibody, human IgG1, kappa, also called Ho Ab E333_14T) heavy: not shown light: DIVMTQSPLSLPVTPGEPASISCQASESLVHSNRNTYLHWYLQKPGQSPQLLIYKVSNRFSGVPDRFSGSGSGTDFTLKISRVEAEDVGVYYCSQNTHVPPTFGQGTKVEIERTVAAPSVFIFPPSDEQLKSGTASVVCLLNNFYPREAKVQWKVDNALQSGNSQESVTEQDSKDSTYSLSSTLTLSKADYEKHKVYACEVTHQGLSSPVTKSFNRGEC | 98.7 % of control
20 | GpH7-B3 variant E333_13S/GpL16-k0 (antibody, human IgG1, kappa, also called Ho Ab E333_13S) heavy: not shown light: DIVMTQSPLSLPVTPGEPASISCQASESLVHSNRNTYLHWYLQKPGQSPQLLIYKVSNRFSGVPDRFSGSGSGTDFTLKISRVEAEDVGVYYCSQNTHVPPTFGQGTKVEIERTVAAPSVFIFPPSDEQLKSGTASVVCLLNNFYPREAKVQWKVDNALQSGNSQESVTEQDSKDSTYSLSSTLTLSKADYEKHKVYACEVTHQGLSSPVTKSFNRGEC | 101 % of control
21 | GpH7-B3 variant E333_06M/GpL16-k0 (antibody, human IgG1, kappa, also called Ho Ab E333_06M) heavy: not shown light: DIVMTQSPLSLPVTPGEPASISCQASESLVHSNRNTYLHWYLQKPGQSPQLLIYKVSNRFSGVPDRFSGSGSGTDFTLKISRVEAEDVGVYYCSQNTHVPPTFGQGTKVEIERTVAAPSVFIFPPSDEQLKSGTASVVCLLNNFYPREAKVQWKVDNALQSGNSQESVTEQDSKDSTYSLSSTLTLSKADYEKHKVYACEVTHQGLSSPVTKSFNRGEC | 99.5 % of control
